In US20190160169A1 (JULIUS MAXIMILIANS UNIVERSIT T W RZBURG, published 2019):

Tests used:
[1] = molecular target: T1, recombinant mature human GDF-15 protein (derived from Baculovirus-transfected HighFive insect cells) (human, UniProt Q99988 197-308); assay: SPR (Biorad ProteOn XPR36), GDF-15 immobilised on GLC chip, antibody as analyte, 25 °C, 1:1 Langmuir
T1 construct: also called recombinant human GDF-15; GDF-15 derived from insect cell expression
T1 sequence: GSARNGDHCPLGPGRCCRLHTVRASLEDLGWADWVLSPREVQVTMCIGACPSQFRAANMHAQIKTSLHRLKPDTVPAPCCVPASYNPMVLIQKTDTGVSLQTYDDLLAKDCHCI
From the text: (§1) For preparing the biosensors recombinant mature human GDF-15 protein was immobilized on flow cells 1 and 2. On one flow cell recombinant GDF-15 derived from Baculvirus-transfected insect cells (HighFive insect cells) and on the other recombinant protein derived from expression in E. coli was used. The GLC sensor chip was activated using Sulfo-NHS (N-Hydroxysulfosuccinimide) and EDC (1-Ethyl-3-[3-dimethylaminopropyl]carbodiimide hydrochloride) (Biorad ProteOn Amine Coupling Kit) according to the manufacturer's recommendation, the sensor surface was subsequently loaded with the proteins up to a density of about 600 RU (1 Ru=1 pg mm⁻²). The non-reacted coupling groups were then quenched by perfusion with 1M ethanolamine pH 8.5 and the biosensor was equilibrated by perfusing the chip with running buffer ([…], 150 mM NaCl, 3.4 mM EDTA, 0.005% Tween-20, pH 7.4, referred to as HBS150). […] The resulting sensogram was analyzed using the software ProteOn Manager version 3.0. […] For the association rate constant a value of 5.4±0.06×10⁵ M⁻¹ s⁻¹ (kₒₙ) and for the dissociation rate constant a value of 4.3±0.03×10⁻⁴ s⁻¹ (koff) could be determined (values are for the interaction of anti-human GDF-15 mAb-B1-23 with GDF-15 derived from insect cell expression).

[2] = molecular target: T1, recombinant mature human GDF-15 protein …; assay: SPR (Biorad ProteOn XPR36), KD=koff/kon
From the text: as §1

[3] = molecular target: recombinant mature human GDF-15 protein derived from expression in E. coli (human) (UniProt Q99988); assay: SPR (Biorad ProteOn XPR36), GDF-15 immobilised on GLC chip, antibody as analyte

B1: monoclonal anti-human GDF-15 mAb-B1-23 (antibody, V domains shown)
VH: QVKLQQSGPGILQSSQTLSLTCSFSGFSLSTSGMGVSWIRQPSGKGLEWLAHIYWDDDKRYNPTLKSRLTISKDPSRNQVFLKITSVDTADTATYYCARSSYGAMDYWGQGTSVTVSS
VL: DIVLTQSPKFMSTSVGDRVSVTCKASQNVGTNVAWFLQKPGQSPKALIYSASYRYSGVPDRFTGSGSGTDFTLTISNVQSEDLAEYFCQQYNNFPYTFGGGTKLEIK
notes: also called antibody B1-23; monoclonal mouse antibody GDF-15
B1 gave a koff [1] of 0.00043 s⁻¹, a kon [1] of 540000 M⁻¹ s⁻¹ and a Kd [2] of ~0.79 nM. The deviation of rate constants against GDF-15 derived from insect cells [3] was 45% and the difference of affinity values against GDF-15 derived from insect cells [3] was < 2 fold.
